Results published in patent US20240002531A1 (ONO PHARMACEUTICAL, published 2024).
Where two headings read alike, the source gives them in different places. Blank lines part the entries; values can stand above or below the binder they belong to.

How the values were obtained:
Assay in all cases: peptide ELISA, OD 655 nm
[1] = target: T1, HER2 peptide p603-622 (amino acids 603 to 622 of human HER2) (human)
T1 construct: Synthetic peptide; also called wild-type HER2 peptide
T1 peptide: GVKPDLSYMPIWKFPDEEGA

[2] = target: T2, D618A peptide (HER2 603-622 with D618A) (human)
T2 peptide: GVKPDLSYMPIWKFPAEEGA

[3] = target: T3, P617A peptide (HER2 603-622 with P617A) (human)
T3 peptide: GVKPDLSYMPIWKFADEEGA

[4] = target: T4, K605A peptide (HER2 603-622 with K605A) (human)
T4 peptide: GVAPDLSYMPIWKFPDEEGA

[5] = target: T5, E620A peptide (HER2 603-622 with E620A) (human)
T5 peptide: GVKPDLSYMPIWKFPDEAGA

[6] = target: T6, P606A peptide (HER2 603-622 with P606A) (human)
T6 peptide: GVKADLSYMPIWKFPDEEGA

[7] = target: T7, V604A peptide (HER2 603-622 with V604A) (human)
T7 peptide: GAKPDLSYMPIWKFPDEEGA

[8] = target: T8, E619A peptide (HER2 603-622 with E619A) (human)
T8 peptide: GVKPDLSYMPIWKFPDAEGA

[9] = target: T9, W614A peptide (HER2 603-622 with W614A) (human)
T9 peptide: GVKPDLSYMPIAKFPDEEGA

[10] = target: T10, M611A peptide (HER2 603-622 with M611A) (human)
T10 peptide: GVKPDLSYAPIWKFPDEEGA

[11] = target: T11, S609A peptide (HER2 603-622 with S609A) (human)
T11 peptide: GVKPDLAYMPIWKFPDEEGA

[12] = target: T12, P612A peptide (HER2 603-622 with P612A) (human)
T12 peptide: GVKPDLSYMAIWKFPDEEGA

[13] = target: T13, HER2_604-622C peptide (NH2-VKPDLSYMPIWKFPDEEGAC-COOH) (human)
T13 construct: KLH was added for immunisation, the peptide itself was coated in the screening ELISA
T13 peptide: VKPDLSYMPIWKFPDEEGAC

[14] = target: T14, L608A peptide (HER2 603-622 with L608A) (human)
T14 peptide: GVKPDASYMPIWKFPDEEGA

[15] = target: T15, F616A peptide (HER2 603-622 with F616A) (human)
T15 peptide: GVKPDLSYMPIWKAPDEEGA

[16] = target: T16, D607A peptide (HER2 603-622 with D607A) (human)
T16 peptide: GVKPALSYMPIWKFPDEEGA

[17] = target: T17, Y610A peptide (HER2 603-622 with Y610A) (human)
T17 peptide: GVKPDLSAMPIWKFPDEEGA

[18] = target: T18, G603A peptide (HER2 603-622 with G603A) (human)
T18 peptide: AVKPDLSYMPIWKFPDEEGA

[19] = target: T19, I613A peptide (HER2 603-622 with I613A) (human)
T19 construct: also called 1613A
T19 peptide: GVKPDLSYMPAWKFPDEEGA

[20] = target: T20, G621A peptide (HER2 603-622 with G621A) (human)
T20 peptide: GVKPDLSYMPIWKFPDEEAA

[21] = target: T21, K615A peptide (HER2 603-622 with K615A) (human)
T21 peptide: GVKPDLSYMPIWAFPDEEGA

[22] = target: T1, HER2 peptide p603-622 (amino acids 603 …)
[23] = target: T2, D618A peptide (HER2 603-622 with D618A)
[24] = target: T3, P617A peptide (HER2 603-622 with P617A)
[25] = target: T4, K605A peptide (HER2 603-622 with K605A)
[26] = target: T5, E620A peptide (HER2 603-622 with E620A)
[27] = target: T6, P606A peptide (HER2 603-622 with P606A)
[28] = target: T7, V604A peptide (HER2 603-622 with V604A)
[29] = target: T8, E619A peptide (HER2 603-622 with E619A)
[30] = target: T9, W614A peptide (HER2 603-622 with W614A)
[31] = target: T10, M611A peptide (HER2 603-622 with M611A)
[32] = target: T11, S609A peptide (HER2 603-622 with S609A)
[33] = target: T12, P612A peptide (HER2 603-622 with P612A)
[34] = target: T13, HER2_604-622C peptide …
[35] = target: T14, L608A peptide (HER2 603-622 with L608A)
[36] = target: T15, F616A peptide (HER2 603-622 with F616A)
[37] = target: T16, D607A peptide (HER2 603-622 with D607A)
[38] = target: T17, Y610A peptide (HER2 603-622 with Y610A)
[39] = target: T18, G603A peptide (HER2 603-622 with G603A)
[40] = target: T19, I613A peptide (HER2 603-622 with I613A)
[41] = target: T20, G621A peptide (HER2 603-622 with G621A)
[42] = target: T21, K615A peptide (HER2 603-622 with K615A)

binding result [1]: binds
binding result [2]: binds
binding result [3]: binds
binding result [4]: binds
binding result [5]: binds
binding result [6]: binds
binding result [7]: binds
binding result [8]: binds
binding result [9]: binds
binding result [10]: binds
binding result [11]: binds
binding result [12]: binds
binding result [13]: binds
binding result [14]: binds
binding result [15]: binds
binding result [16]: binds
binding result [17]: binds
binding result [18]: binds
binding result [19]: binds
binding result [20]: binds
binding result [21]: binds
B1: H2Mab-279 antibody (antibody, mouse IgG3, V domains shown)
VH: EVQLVESGGGLVQPGGSLKLSCAASGFSFSSYGIFWVRQTPDKRLELVATIKSNGGRTYYPDSVKGRFTISRDNAKNTLHLQMSSLKSEDTAMYYCAREGGDYWGQGTSVTVSS
VL: DIVMTQSHKIMSTSVGDRVSISCKASQDVGTAVAWYQQKPGQSPILLIYWASTRHTGVPDRFTGSGSGTDFTLTISNVQSEDLADYFCQQYKSNPLTFGAGTKLELKR

binding result [22]: binds
binding result [23]: binds
binding result [24]: binds
binding result [25]: binds
binding result [26]: binds
binding result [27]: binds
binding result [28]: binds
binding result [29]: binds
binding result [30]: no binding (tested: 10 ug/ml)
binding result [31]: binds
binding result [32]: binds
binding result [33]: binds
binding result [34]: binds
binding result [35]: binds
binding result [36]: binds
binding result [37]: binds
binding result [38]: binds
binding result [39]: binds
binding result [40]: binds
binding result [41]: binds
binding result [42]: binds
B2: H2Mab-283 antibody (antibody, mouse IgG1, kappa, V domains shown)
VH: EVQLVESGGGLVQPGGSLKLSCAASGFTFSSYGMSWVRQTPDKRLELVATINSNGGSTFYPDSVKGRFTISRDNAKNTLYLHMSSLKSEDTAIYYCVSPGSWFPYWGRGTLVTVSA
VL: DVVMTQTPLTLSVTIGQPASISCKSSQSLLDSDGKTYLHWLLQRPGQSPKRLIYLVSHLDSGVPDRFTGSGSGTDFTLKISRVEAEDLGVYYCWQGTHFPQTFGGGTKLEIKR

binding result [1]: binds
binding result [2]: binds
binding result [3]: binds
binding result [4]: binds
binding result [5]: binds
binding result [6]: binds
binding result [7]: binds
binding result [8]: binds
binding result [9]: no binding (tested: 10 ug/ml)
binding result [10]: binds
binding result [11]: binds
binding result [12]: binds
binding result [13]: binds
binding result [14]: binds
binding result [15]: binds
binding result [16]: binds
binding result [17]: binds
binding result [18]: binds
binding result [19]: binds
binding result [20]: binds
binding result [21]: binds
B3: H2Mab-280 antibody (antibody, mouse IgG1, kappa, V domains shown)
VH: DVKLVESGGGLVKPGGSLKLSCAASGFTFSSYSMSWVRQTPEKRLEWVAIISSGGSYTFYPDSVKGRFTISRDNAKNTLYLQMSSLKSEDTAMYHCTREAGDYWGQGTTLTVSS
VL: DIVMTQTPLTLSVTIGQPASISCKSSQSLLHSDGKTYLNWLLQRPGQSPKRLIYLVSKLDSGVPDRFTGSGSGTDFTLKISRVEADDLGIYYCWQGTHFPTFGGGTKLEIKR

binding result [1]: binds
binding result [2]: binds
binding result [3]: binds
binding result [4]: binds
binding result [5]: binds
binding result [6]: binds
binding result [7]: binds
binding result [8]: binds
binding result [9]: binds
binding result [10]: binds
binding result [11]: binds
binding result [12]: binds
binding result [13]: binds
binding result [14]: binds
binding result [15]: no binding (tested: 10 ug/ml)
binding result [16]: binds
binding result [17]: binds
binding result [18]: binds
binding result [19]: binds
binding result [20]: binds
binding result [21]: binds
B4: H2Mab-282 antibody (antibody, mouse IgG2a, kappa, V domains shown)
VH: QVQLQQSGAELSRPGASVKMSCKAAGYTFSSYMIHWVKQRPGQGLEWIGYINPSSGYSNYNQKFKDKATLTADKSSSTAYMQLSSLTSEDSAVYYCAFYDYDGDWGQGTLVTVSA
VL: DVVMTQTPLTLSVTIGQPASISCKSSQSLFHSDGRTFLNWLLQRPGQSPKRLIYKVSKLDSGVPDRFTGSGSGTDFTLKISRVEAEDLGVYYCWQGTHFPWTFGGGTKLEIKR
